From patent US20210147531A1 (AstraZeneca / MedImmune, published 2021) come the findings set out here.

Where “and” joins values, the source holds several entries; their conditions need not be identical. Equal entries are not always repeated.

In assay [1] the target is T1, human VEGF165 (human, UniProt P15692-4 27-191).
T1 construct: the isoform is VEGF165; also called huVEGF; recombinant VEGF165
Description: capture ELISA, Fab on anti-Fd, biotinylated VEGF165. The protocol:
(§1) Briefly, this capture ELISA involved coating individual wells of a 96-well Maxisorp Immunoplate with approximately 50 ng of a sheep anti-human Fd antibody (Biodesign International, ME) in a carbonate buffer at pH 8.5 overnight at 4° C. The next day, the plate was blocked with 3% BSA in PBS buffer for 1 hour at room temperature. Fab supernatant was then added to the plate and incubated at room temperature for 1 hour. After washing, the biotinylated VEGF165 protein was added to the well and the mixture was incubated for 1.5 hours at room temperature. This was followed by incubation with neutravidin-horseradish peroxydase (HRP) conjugate (Pierce, Ill.) for approximately 40 minutes at room temperature. HRP activity was detected with tetra-methyl-benzidine (TMB) substrate and the reaction quenched with 0.2 M H2SO4. Plates were read at 450 nm.
(§2) The Fab concentration was determined by comparing the ELISA signals with the signals generated by the reference Fab.

In assay [2] the target is T2, mouse VEGF164 (mouse, UniProt Q00731-2 27-190).
T2 construct: also called mVEGF164; murine VEGF164
T2 sequence (looked up): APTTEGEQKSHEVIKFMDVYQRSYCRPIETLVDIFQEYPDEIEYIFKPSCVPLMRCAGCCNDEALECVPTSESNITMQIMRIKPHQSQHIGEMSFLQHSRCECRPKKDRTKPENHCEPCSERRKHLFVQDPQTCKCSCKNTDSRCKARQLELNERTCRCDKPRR
Kind of assay: ELISA on murine VEGF164 (Example 7), O.D. 450 nm against antibody concentration, 4-parameter fit. The protocol:
(§3) EC50 values were determined using non-linear regression analysis (log dose response, 4-parameter fit curves) in GraphPad Prism, version 5.01 (San Diego, Calif.).

Assay [3] addresses T3, human VEGF121 (human, UniProt P15692-9 27-147).
T3 construct: the isoform is VEGF121
T3 sequence (looked up): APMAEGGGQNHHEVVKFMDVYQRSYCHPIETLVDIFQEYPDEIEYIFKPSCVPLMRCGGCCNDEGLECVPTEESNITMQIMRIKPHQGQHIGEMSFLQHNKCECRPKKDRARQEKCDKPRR
Kind of assay: ELISA on human VEGF121 (Example 8), OD 450 nm against antibody concentration, 4-parameter fit. As to the method:
as §3
In general terms: In an ELISA, binding on a coated surface is turned into a signal by an enzyme label.

In assay [4] the target is T1, human VEGF165. Kind of assay: KinExA, IgG in solution, huVEGF165-coated beads. The protocol: Coated beads were then separated (spin) from unreacted huVEGF protein solution, and blocked with 1M Tris, pH 8, containing BSA at 10 mg/mL), for approximately 15 minutes at room temperature. After this, the bead slurry was spun to remove the blocking solution, and then the block step was repeated for approximately 2 hours using fresh block buffer, and stored at 4° C. until used. Prior to use, the huVEGF-coated beads were transferred to a bead vial, resuspended in approximately 27 mLs of instrument buffer (10 mM HEPES+300 mM NaCl+5 mM CaCl₂+0.05% P20+0.02% NaN₃, pH8), and affixed to the KinExA instrument. […] These concentrations of mAbs were chosen to allow each KD measurement to be made under both receptor- and KD-controlled conditions, leading to more rigorous estimations of reagent activity and affinity, respectively. […] Two-fold serial dilutions of huVEGF protein were then titrated across 9 of the tubes in each mAb series, followed by two additional 10-fold-dilutions, leaving one tube as the mAb-only, “zero” control. […] Based on theory curve simulations available through the vendor software (Sapidyne Instruments, Boise, Idaho), the mixtures were incubated 1-4 days at room temperature to allow binding to reach equilibrium. At the end of this time, signal-testing experiments were conducted to determine the appropriate run conditions for each set of measurements.
For orientation: In KinExA the mixture passes briefly over coated beads that capture the unbound partner.

The target in assay [5] is T2, mouse VEGF164. Kind of assay: ELISA, coated VEGF, IgG, anti-human-Fc-HRP. The protocol:
(§4) The 96-well microtiter plates (Corning) were coated with 50 μl/well of human and mouse VEGF165 or VEGF121 at a concentration of 5 μg/ml in PBS at 4° C. overnight. After being washed three times with PBS containing 0.1% Tween-20 (PBST), the wells were blocked with blocking buffer (4% skimmed milk in PBS). After 1 h incubation at room temperature, the plates were washed with PBST and a 2-fold serial dilution of the antibodies (starting from 8 nM) in blocking buffer were added and incubated for 1 hour at room temperature. The antibody solution was removed by washing with PBST followed by 1 hour incubation at room temperature with a 1:3000 dilution of an anti-human-Fc-HRP antibody (Thermo Scientific) prepared in PBST. Binding was visualized with the addition of 50 μL of SureBlue Reserve TMB substrate (KPL) for 5 minutes at room temperature and the reaction was stopped by adding 50 μL of TMB Stop Solution (KPL). The absorbance at 450 nm was measured using a microtiter plate reader. The data were analyzed using Prism 5 software (GraphPad).

In assay [6] the target is T1, human VEGF165. Description: ELISA, coated VEGF, IgG, anti-human-Fc-HRP. The protocol:
as §4

In assay [7] the target is T1, human VEGF165. Description: VEGF165 ELISA of purified IgGs, OD450 against ug/ml.
The target in assay [8] is T1, human VEGF165. Kind of assay: ELISA of Fabs at normalised concentrations on VEGF165 (Example 5), OD450 against Fab ug/ml. The protocol:
as §1, §2

B1: D04 Fab (Fab, V domains shown)
VH: EVQLLESGGGLVQPGGSLRLSCAASGFTFSWYEMYWVRQAPGKGLEWVSSISPSGGWTMYADSVKGRFTISRDNSKNTLYLQMNSLRAEDTAVYYCATPLYSSDGLSAGDIWGQGTMVTVSS
VL: EIVLTQSPATLSLSPGERATLSCRASQSVHSSYLAWYQQKPGQAPRLLIYGASSRATGIPDRFSGSGSGTDFTLTISRLEPEDFAVYYCQQSYSTPSFGQGTRLEIT
notes: Point mutant of M4 tested as Fab; Fab constant parts not specified
With B1, in assay [1], the “fold improvement in EC50 compared to germline E06 as Fabs” value (shortened to “fold improvement in EC50”) was above 10 fold.

B2: J05 IgG (antibody, V domains shown)
VH: EVQLLESGGGLVQPGGSLRLSCAASGFTFSWYEMYWVRQAPGKGLEWVSSISPSGGWTMYADSVKGRFTISRDNSKNTLYLQMNSLRAEDTAVYYCATPLYSSDGLSAGDIWGQGTMVTVSS
VL: EIVLTQSPATLSLSPGERATLSCRASQSVSSSYLAWYQQKPGQAPRLLIYGASSRATGIPDRFSGSGSGTDFTLTISRLEPEDFAVYYCQQSYRTPSFGQGTRLEITR
The molecule B2 gave a concentration giving a half-maximal response (EC50) in assay [2] of 0.046 nM. Further, the 50% effective concentration (EC50) in assay [3] turned out to be 4.97 nM. Besides, in assay [4], the “FoldΔ KD vs. EO6-wt” value came out at 11 fold and the Kd is 0.22 nM.

B3: E06 full length IgG (antibody, V domains shown)
VH: EVQLLESGGGLVQPGGSLRLSCAASGFTFSWYEMYWVRQAPGKGLEWVSSISPSGGWTMYADSVKGRFTISRDNSKNTLYLQMNSLRAEDTAVYYCATPLYSSDGLSAGDIWGQGTMVTVSS
VL: DIQMTQSPATLSLSPGERATLSCRASQSVSSSYLAWYQQKPGQAPRLLIYGASSRATGIPDRFSGSGSGTDFTLTISRLEPEDFATYYCQQSYSTPSFGQGTRLEITR
notes: also called antibody E06; Wt (E06)
Turning to B3, the concentration giving a half-maximal response (EC50) was found to be 0.049 nM in assay [5], 0.048 nM in assay [6] and 0.03 nM in assay [2]. Also, in assay [7], the “EC50 (read off the curve)” value was ~0.07 µg/mL and ~0.06 µg/mL. In assay [4], the affinity, expressed as Kd, was 2.52 nM.

B4: H1DR IgG (antibody, V domains shown)
VH: EVQLLESGGGLVQPGGSLRLSCAASGFTFSWYEMYWVRQAPGKGLEWVSSISPSGGWTMYADSVKGRFTISRDNSKNTLYLQMNSLRAEDTAVYYCATPLYSSDGLSAGDIWGQGTMVTVSS
VL: EIVLTQSPATLSLSPGERATLSCRASQSVHSSYLAWYQQKPGQAPRLLIYGASSRATGIPDRFSGSGSGTDFTLTISRLEPEDFAVYYCQQDYRTPSFGQGTRLEITR
Regarding B4, the concentration for a half-maximal effect (EC50) in assay [2] worked out at 0.043 nM; in assay [3], 0.017 nM. Besides, in assay [7], the “EC50 (read off the curve)” value is around 0.1 µg/mL.

B5: J05 Fab (Fab, V domains shown)
VH: EVQLLESGGGLVQPGGSLRLSCAASGFTFSWYEMYWVRQAPGKGLEWVSSISPSGGWTMYADSVKGRFTISRDNSKNTLYLQMNSLRAEDTAVYYCATPLYSSDGLSAGDIWGQGTMVTVSS
VL: EIVLTQSPATLSLSPGERATLSCRASQSVSSSYLAWYQQKPGQAPRLLIYGASSRATGIPDRFSGSGSGTDFTLTISRLEPEDFAVYYCQQSYRTPSFGQGTRLEIT
notes: Point mutant (VL S94R) of M4 tested as Fab; Fab constant parts not specified; also called point mutant J05
On to B5, for which, in assay [1], the “fold improvement in EC50” value was above 10 fold and the “fold improvement of binding over E06” value is around 25 fold.

B6: E06 germline M4 Fab (Fab, V domains shown)
VH: EVQLLESGGGLVQPGGSLRLSCAASGFTFSWYEMYWVRQAPGKGLEWVSSISPSGGWTMYADSVKGRFTISRDNSKNTLYLQMNSLRAEDTAVYYCATPLYSSDGLSAGDIWGQGTMVTVSS
VL: EIVLTQSPATLSLSPGERATLSCRASQSVSSSYLAWYQQKPGQAPRLLIYGASSRATGIPDRFSGSGSGTDFTLTISRLEPEDFAVYYCQQSYSTPSFGQGTRLEIT
notes: Fab; D1E/Q3V/M4L/T86V in the VL against E06; Fab constant parts not specified; also called germline clone M4; germline E06
B6: the binding result in assay [8] is recorded as “binds”.

B7: I20 Fab (Fab, V domains shown)
VH: EVQLLESGGGLVQPGGSLRLSCAASGFTFSWYEMYWVRQAPGKGLEWVSSISPSGGWTMYADSVKGRFTISRDNSKNTLYLQMNSLRAEDTAVYYCATPLYSSDGLSAGDIWGQGTMVTVSS
VL: EIVLTQSPATLSLSPGERATLSCRASQSVSSSYLAWYQQKPGQAPRLLIYGASSRATGIPDRFSGSGSGTDFTLTISRLEPEDFAVYYCQQDYSTPSFGQGTRLEIT
notes: as for B1
As to B7, in assay [1], the “fold improvement in EC50” value is above 10 fold.

A word on the EC50: it is the midpoint of the concentration-response curve. The term Kd denotes the free concentration of one partner at which half of the binding sites on the other are occupied at equilibrium, for simple one-to-one binding. Higher therefore signals a looser complex. The EC50 (read off the curve) is the midpoint of the concentration-response curve.
